Measurements published in patent US12331319B2, “Respiratory and sweat gland ionocytes” (The Broad Institute, Inc., priority 2017, dated 2025).

Tested on: cultured proximal and distal airway epithelium
Experiment: IL-13-induced mucous metaplasia (goblet cell differentiation) in cultured proximal and distal airway epithelium (ALI)
Type: cell-based, mouse
Details: rIL-13 25 ng/mL vs control; epithelia from proximal vs distal trachea, Foxj1-GFP mice n=6; p<0.001
Method: Transwell cultures. Cells were cultured and expanded in complete SAGM (small airway epithelial cell growth medium; Lonza, CC-3118) containing TGF-β/BMP4/WNT antagonist cocktails and 5 μM Rock inhibitor Y-27632 (Selleckbio, S1049). To initiate air-liquid interface (ALI) cultures, airway basal stem cells were dissociated from mouse tracheas and seeded onto transwell membranes. After reaching confluence, media was removed from the upper chamber. Mucociliary differentiation was performed with PneumaCult-ALI Medium (StemCell, 05001). Differentiation of airway basal stem cells on an air-liquid interface was followed by directly visualizing beating cilia in real time after 10-14 days. […]
Statistical analysis of proximodistal mucous metaplasia. For the analysis in FIG. 18H,I, the extent of goblet cell hyperplasia was assessed using counts of Muc5ac^+ goblet cells, normalized to counts of GFP^+ ciliated cells. To quantify differences in the count values between the samples in different conditions (n=6, Foxj1-GFP mice), Applicants fit a negative binomial regression using the ‘glm.nb’ function from the ‘MASS’ package in R. Pairwise comparisons between means for each condition were computed using post hoc tests and p-values were adjusted for multiple comparisons using Tukey's HSD, implemented using the function ‘pairs’ from the ‘emeans’ package in R.

B1: rIL-13: recombinant murine IL-13 (Peprotech) used to induce mucous metaplasia (protein, UniProt P20109 19-131, looked up)
Interleukin-13: APGPVPRSVSLPLTLKELIEELSNITQDQTPLCNGSMVWSVDLAAGGFCVALDSLTNISNCNAIYRTQRILHGLCNRKAPTTVSSLPDTKIEVAHFITKLLSYTKQLFRHGPF
- induction of goblet cell differentiation (Muc5ac+ goblet cells / GFP+ ciliated cells): much higher induction of goblet cell differentiation in the distal epithelium
